Assay results taken from patent US20080141385, “Skn-1 and Gsk-3 Genes and Proteins” (published 2008).

Tests used:
SKN-1 peptides = biological target: T1, SKN-1 peptides (UniProt P34707)
T1 sequence: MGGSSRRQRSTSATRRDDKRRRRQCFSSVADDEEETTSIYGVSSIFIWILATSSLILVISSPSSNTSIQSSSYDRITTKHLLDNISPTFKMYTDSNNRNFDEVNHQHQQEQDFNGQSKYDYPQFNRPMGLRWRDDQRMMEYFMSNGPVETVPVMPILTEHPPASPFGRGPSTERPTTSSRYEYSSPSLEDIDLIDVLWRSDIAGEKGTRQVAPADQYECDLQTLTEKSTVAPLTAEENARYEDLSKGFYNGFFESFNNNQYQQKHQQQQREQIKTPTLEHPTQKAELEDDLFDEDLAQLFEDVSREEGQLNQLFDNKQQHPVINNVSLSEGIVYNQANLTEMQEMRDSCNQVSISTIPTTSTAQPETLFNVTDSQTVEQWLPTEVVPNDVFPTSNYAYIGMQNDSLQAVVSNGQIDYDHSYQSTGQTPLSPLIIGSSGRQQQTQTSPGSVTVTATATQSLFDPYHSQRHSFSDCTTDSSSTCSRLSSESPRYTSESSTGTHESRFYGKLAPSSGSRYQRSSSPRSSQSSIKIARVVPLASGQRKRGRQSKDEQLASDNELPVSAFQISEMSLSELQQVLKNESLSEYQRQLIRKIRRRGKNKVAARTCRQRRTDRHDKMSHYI

SKN-1 full-length = biological target: T2, SKN-1 full-length (Caenorhabditis elegans, UniProt P34707 SEQ:1-533); experiment: EMSA; no binding to mutant probe; as unlabeled competitor much less effective than wild type; conditions: label: 32P
T2 sequence: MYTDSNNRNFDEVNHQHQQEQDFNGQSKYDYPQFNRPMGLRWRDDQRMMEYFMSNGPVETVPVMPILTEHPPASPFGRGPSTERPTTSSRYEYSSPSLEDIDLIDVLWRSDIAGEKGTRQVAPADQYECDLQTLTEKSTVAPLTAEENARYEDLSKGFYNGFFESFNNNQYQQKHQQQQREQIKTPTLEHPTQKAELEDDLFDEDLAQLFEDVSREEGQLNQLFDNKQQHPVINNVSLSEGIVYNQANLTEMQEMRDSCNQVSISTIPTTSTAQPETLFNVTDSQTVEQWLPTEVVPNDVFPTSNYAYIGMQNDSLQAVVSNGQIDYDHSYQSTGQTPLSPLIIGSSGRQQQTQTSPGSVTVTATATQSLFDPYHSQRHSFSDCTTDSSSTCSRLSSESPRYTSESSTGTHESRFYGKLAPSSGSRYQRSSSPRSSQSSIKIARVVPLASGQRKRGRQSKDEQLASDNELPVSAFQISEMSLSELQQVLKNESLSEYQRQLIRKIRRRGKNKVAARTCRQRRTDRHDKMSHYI
Method: (§1) FIGS. 4A and 4B: Specific binding of SKN-1 to an essential gcs-1 promoter sequence. 4A: Binding of full-length SKN-1 to site 3 within the gcs-1 composite element, assayed by EMSA. Lanes 2-5 show binding of increasing amounts of in vitro translated SKN-1 protein (0 μl, 0.25 μl, 0.5 μl, 3 μl translation lysate; indicated by a triangle) to the wild type site. […] A background species is labeled. Lanes 6-10 show the same assay performed with the mutant probe. In lanes 11-20, SKN-1-DNA binding is assayed in the presence of the indicated unlabelled competitor oligonucleotides. Lanes 12-15 and 17-20 correspond to addition of a 20-, 50-, 150-, and 400-fold molar excess of competitor over the labeled wild-type DNA. 4B: The in vitro translated SKN-1 DNA binding domain (FIG. 1B) binds specifically to the gcs-1 composite element. Binding was assayed as in 4A.
(§2) Remarkably, SKN-1 binding site 3 is located within a 42 bp gcs-1 promoter element that is similar to a composite motif through which SKN-1 activates med-1 and med-2 in the embryo (FIGS. 1A and 3C) (Maduro et al. Mol. Cell 7: 475-485 (2001)). The conservation between these gcs-1 and med promoter elements is particularly striking because they are located at identical distances from their respective translation starts, but contain different numbers of SKN-1 sites (FIG. 3C). […]

[1] = biological target: T3, SKN-1 DNA binding domain (SKN domain, 85 aa) (Caenorhabditis elegans, UniProt P34707 SEQ:1-85); experiment: as above; conditions: label: 32P
T3 sequence: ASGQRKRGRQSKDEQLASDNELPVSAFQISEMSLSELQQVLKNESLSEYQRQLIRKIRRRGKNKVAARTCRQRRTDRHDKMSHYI
Method: as §1, §2

Molecule | phosphorylation of SKN-1 by GSK-3 (SKN-1 peptides) | phosphorylation of SKN-1 peptides by GSK-3 (SKN-1 peptides) | binding result (SKN-1 full-length) | binding result [1]
GSK-3 | GSK-3 then phosphorylates SKN-1 sequentially in the amino-terminal direction | Phosphorylation by GSK-3 required priming phosphorylation at a serine or threonine residue located four positions carboxyl-terminal to the GSK-3 site |  | 
gcs-1 composite element, site 3 mutant (dsDNA) DNA 1: ACTTTCTGCAGATGAGATTTAATGTTTCCTTTTGATTTTCT DNA 2: AGAAAATCAAAAGGAAACATTAAATCTCATCTGCAGAAAGT |  |  | no binding | no binding
